Measurements as given in the supplement of paper PMC12042874.
± gives the uncertainty stated by the source.

Test: amyloid nucleation score (Sup35N fusion, yeast selection) (log enrichment); library NNK3; higher = more nucleation; inactive = no reads after selection
How it was run: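 Using DiMSum, nucleation scores were taken as the log enrichment of output over input reads, centred on the mode score of non-aggregating sequences. The input and output reads came from Illumina sequencing of plasmid inserts, with sequences under 100 input reads excluded. The yeast were psi-negative, expressed Sup35N fused to peptides of 20 random codons, were induced with 100 μM copper sulfate for 24 hours, and were grown 7 days at 30°C on medium lacking adenine and uracil.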

| Substance | amyloid nucleation score |
| --- | --- |
| TDMHGFNNIS | inactive |
| TDRTQ | inactive |
| TDTSAGFM | inactive |
| TDVDNGLYRIDNLMARAKVY | inactive |
| TECMGGGSVWTQW | inactive |
| TEDGYNNEMSRQKVMVLINT | inactive |
| TEFKAFHNCQINRSDTTLWL | 0.096 ± 0.68 |
| TENKSMSFFNYDRAYARIL | inactive |
| TENQS | inactive |
| TEQRMQ | inactive |
| TESQRSNWCTASIKSMYSYS | inactive |
| TETSWDGVVLSLISCRFQSY | 3.02 ± 0.079 |
| TEVPFRVSF | inactive |
| TEVSQWGVREVFSLSTSRRL | 0.372 ± 0.28 |
| TFEWCMPFFTNFSLMFFFYW | inactive |
| TFFEVGRQYELAVGKSRSSM | inactive |
| TFGFRNRYFELLSVVIRHLA | inactive |
| TFLMAYSWSCRQRNCKGFIY | inactive |
| TFPLAECRWIVWRLDDSLM | inactive |
| TFPRERWDCPCKVIFRSVTP | inactive |
| TFRIVRFCLKILTCRTC | inactive |
| TFSASAVFTYDKGAPPLLEG | 0.999 ± 0.17 |
| TFTLSCFTCNGFVSDVVHCD | 3.21 ± 0.054 |

| Substance | amyloid nucleation score |
| --- | --- |
| TFTTFRWDEGVLLYLYERVG | inactive |
| TFVVGRVITWKNQVCL | inactive |
| TFWFD | inactive |
| TFWKKGMPGIIYRYFYLF | inactive |
| TFYDDYQDLQKLFARFWLPV | inactive |
| TGDSLLLAHLLWSMDIVNMN | inactive |
| TGFYDCNLGLDLCIAIWVCS | -0.156 ± 0.34 |
| TGHWNSDWFLI | inactive |
| TGLNIILLLCFMMSLGES | inactive |
| TGMFL | -0.004 ± 0.2 |
| TGSMFRSRPRSEG | inactive |
| TGSTDRHYGRYIGWGANSRF | inactive |
| TGSVVRDMVMAFTD | -0.458 ± 0.93 |
| TGVVTMF | inactive |
| TGYCYMILLRNGVQVSVEGT | 0.092 ± 0.81 |
| TGYSYFYGWMVTYATQSKRV | inactive |
| TGYWI | inactive |
| THEVISSFGMVFRNSNFCNS | inactive |
| THLVDYKLVL | inactive |
| THRDYLMVRYCGSCHVEMVS | inactive |
| TIAVLMLIDCGSRGPFRHLT | inactive |
| TIKYVDRPARTGGEALAIVV | -0.323 ± 1 |
| TINRHYVTASRYWLPCRRVR | inactive |

| Substance | amyloid nucleation score |
| --- | --- |
| TIRFGSSLPCNPDSSYLLRI | inactive |
| TISYMWRLNGWRSNRAFGSI | inactive |
| TIYFF | 1.27 ± 0.11 |
| TKECGKKFNYWVRIDLSRLW | inactive |
| TKLMGLSVLLIEVIVGVSCW | inactive |
| TKSAYRWSRKVRNEFQGSMG | inactive |
| TKTFSDVMLYQCAARCKDLH | inactive |
| TKVFVLHSYDCTIKTSGFNS | inactive |
| TKWANR | inactive |
| TKYFRSNNPFHLVYTYIYLT | inactive |
| TLASTGYFFR | inactive |
| TLDAILNLHTS | inactive |
| TLDINMNLRSLYVGQHYADI | inactive |
| TLDPNIHESFFSAACWYSKA | inactive |
| TLFQDSLLYVSWRSES | 0.118 ± 0.34 |
| TLGIWRDYSYKTILRRWDDR | inactive |
| TLGVRIHCGEFNLYDHSRVK | 0.875 ± 0.26 |
| TLHWCMVSNHRAKCYCLFET | 0.472 ± 0.42 |
| TLIFFDKDYYCGVRQMWNVG | inactive |
| TLIRRVYVRRFYTGIEVGST | inactive |
| TLLDVPRSRLWSKFWLCVQL | inactive |
| TLLFSIYCIFLNPSVQRRFE | -0.028 ± 0.43 |
| TLLPLQMFTNHWALMPSSHR | 0.125 ± 0.9 |

| Substance | amyloid nucleation score |
| --- | --- |
| TLLRLHQVAY | inactive |
| TLLVCNMWNFSRNIMVHIGV | inactive |
| TLLYERNEYVVRNTYWDICL | inactive |
| TLLYTI | inactive |
| TLNVVPR | inactive |
| TLSCDRKNCVVHCFLIQRFL | inactive |
| TLSCTKVTP | inactive |
| TLSIEMGQLDRERVGLNCKR | inactive |
| TLSVLFSVSAAAFGVHRIQD | 1.09 ± 0.21 |
| TLSYRMFINKPSGMMCEHFN | 1.05 ± 0.11 |
| TLVRTDPRGTVSPPTFPCEW | inactive |
| TMCCACVFLSSSGWEFNYGL | 2.35 ± 0.081 |
| TMKIMFVEPWKCRAAFQL | inactive |
| TMNAICLNPVS | inactive |
| TMSLFTTSVCCWTKGAIRHS | inactive |
| TMVFILQMLV | 1.47 ± 0.097 |
| TMVYPKIPGGRTLAWDMTGR | inactive |
| TNANFATDSHFLVITE | inactive |
| TNIYKARL | inactive |
| TNKRTYFWVF | 1.02 ± 0.097 |
| TNLACWVTFCPNCMMLDYLG | 2.21 ± 0.064 |
| TNNTKERYIHLSFMTKWWTF | inactive |
| TNQALTMNCHPG | inactive |

| Substance | amyloid nucleation score |
| --- | --- |
| TNTFYDHTNFMIVGLVPVRY | inactive |
| TNYRYSFGISYS | inactive |
| TPDFVRSRKMNWVAIKKRAE | inactive |
| TPFSCEYNIMWESRGGDWSR | inactive |
| TPFTFGCHRLLQHKYCNSDV | inactive |
| TPKFLSMLIRTHSSPVRTHL | inactive |
| TPLGSQLALESDFFYTPNRC | inactive |
| TPMWMGT | inactive |
| TPSRREMDVCVFFSPFAMHM | 0.896 ± 0.095 |
| TPYVTGTTEAVKMQHRCNVD | -0.188 ± 0.87 |
| TQDCG | inactive |
| TQLNTFYSVITSSFMIDFC | inactive |
| TQNGVCYRNPVFYGRRARKL | inactive |
| TQNNNGRVETPGASTPKHPC | inactive |
| TQWYS | inactive |
| TRFLCSGV | inactive |
| TRITMASSREV | inactive |
| TRLGYKKGFFMTSSSHRLMV | inactive |
| TRNPDKLCANVLDNRH | inactive |
| TRPGLKWWVLRRMRHFGRRV | inactive |
| TRVLSINRNTPANRLIGVGC | inactive |
| TRVSWTFGINTSSGPSALHL | 0.995 ± 0.13 |
| TRWSVFKLRADDRNMQASKS | inactive |

| Substance | amyloid nucleation score |
| --- | --- |
| TSDIDIY | -0.397 ± 0.73 |
| TSFFNNFSLLFVLVWNVLRG | inactive |
| TSGHVVTMEHRLLYVPTIGF | inactive |
| TSGKGFYMLSVGVRVYQWDI | inactive |
| TSHPYNHVESSG | 0.972 ± 0.095 |
| TSKLRQCGFL | inactive |
| TSLFGIPQCRFRVRSWNDVV | inactive |
| TSLGFSLSSSTDAFVEKFEG | 1.56 ± 0.077 |
| TSLSRHTIPYNHVLYSTWW | inactive |
| TSLWRLL | inactive |
| TSMRKSACSWTLFSLR | inactive |
| TSTGYNPIYYIMMFN | 0.677 ± 0.32 |
| TSTHCIIWLGRSDRRREMQL | -0.752 ± 1.9 |
| TSVNVWFPFLGVREGFGCSP | 1.37 ± 0.15 |
| TTCAVCRCIRGAMFNGSVSK | inactive |
| TTCFTHGKLPNIRAWSIWTQ | inactive |
| TTEDLSVG | inactive |
| TTFNRFVYPYGERYLG | inactive |
| TVGGFAWLDNSLSDRMFDTS | inactive |
| TVICELRNMRYS | 1.81 ± 0.087 |
| TVIKPWLLICCDLFREVGFA | 1.12 ± 0.14 |
| TVIRRLYCLNGLVANTSFAV | inactive |
| TVKYHGSPCVLHDLLIVERR | inactive |

| Substance | amyloid nucleation score |
| --- | --- |
| TVLLIGNMWTYWAYMQCSWG | inactive |
| TVRGYRLAHYIAAGYSCMSR | inactive |
| TVSGNKYISDRVQN | inactive |
| TVSIRIINT | 0.15 ± 0.66 |
| TVSKCSERRVCTPGDSCVAC | inactive |
| TVVDLVIFG | inactive |
| TVVVGLVGF | 0.825 ± 0.2 |
| TWCAHS | inactive |
| TWKQDWDNFSYVLNSSSHST | inactive |
| TWLFFRNHTQAFCSYLAHWG | inactive |
| TWLIGHGAVIVRLYNFYMAI | inactive |
| TWQVVNSPYPMRNIPYRSRW | inactive |
| TWSMNIIMCLNRQVDQGFSL | 1.82 ± 0.075 |
| TWVVYFVVRMCVQGSVYSMA | inactive |
| TWWSLGSVELVLWFKSCCDF | 1.44 ± 0.083 |
| TWWWDTKLVRRPCSRGWVTC | inactive |
| TWYRCD | inactive |
| TYCSYTL | inactive |
| TYEGITVVTFVSYSYAIREP | 0.703 ± 0.096 |
| TYFYSIIYYIYGYVFLRRAY | -0.346 ± 0.8 |
| TYLCFYTKRPDAVYWSTLDH | inactive |
| TYMFMVAYNVSTRPRKLLNC | inactive |
